Positions count from the first letter of the chain named. Numbers in names are those of the source.
B1: bCD38 (bovine CD38/NAD+glycohydrolase) (Bos taurus) (protein)
chain: YKWHYSGLNRWHGAGSTADFQKIIQERCDTYTQTIRPGSRSRNCQAIRQAFMSAFISKDPCKATKEDYNSLINLAPPTVPCGQQVFWSKTKELAHEYAKRRRLMTLEDTLLGYLADGLRWCGEPGSSDLNIWSCPDWRKDCRTNYLSVFWEVLSERFAESACNTVRVVLNGSLENAFDSMSIFGRVEAPNLRPQVELEAWLVHDTGKPPSDSCSGSSIRKLKSILDGRNVKFRCMDNLSRDQFLQRS
notes: soluble ecto-domain residues 32-278 (first 31 residues removed), alpha-factor secretion signal, Pichia pastoris GS115 or X33, mono-N-glycosylated at Asn201, back-to-back homodimer in crystal
B2: bCD38 (bovine CD38/NAD+glycohydrolase) (Bos taurus; W168A) (protein)
chain: B1 chain with W137A
notes: as for B1
B3: bCD38 (bovine CD38/NAD+glycohydrolase) (Bos taurus; E218Q) (protein)
chain: B1 chain with E187Q
notes: as for B1
B4: bCD38 (bovine CD38/NAD+glycohydrolase) (Bos taurus; K120A) (protein)
chain: B1 chain with K89A
notes: as for B1
B5: bCD38 (bovine CD38/NAD+glycohydrolase) (Bos taurus; S185A) (protein)
chain: B1 chain with S154A
notes: as for B1
B6: bCD38 (bovine CD38/NAD+glycohydrolase) (Bos taurus; R216A) (protein)
chain: B1 chain with R185A
notes: as for B1

substrate: NC(=O)c1ccc[n+]([C@@H]2O[C@H](COP(=O)(O)OP(=O)(O)OC[C@H]3O[C@@H](n4cnc5c(N)ncnc54)[C@H](O)[C@@H]3O)[C@@H](O)[C@H]2O)c1; test: radiometric HPLC assay, initial rates, Michaelis-Menten fit; format: biochemical, Bos taurus; settings: 10 mM potassium phosphate pH 7.4, 37°C, 14C-labelled NAD+ tracer
Description: radiometric HPLC assay, initial rates, Michaelis-Menten fit on bCD38 (bovine CD38/NAD+glycohydrolase)

**Q.** How did the Km turn out when B1 was run?
**A.** The Km was 17.1 ± 0.3 µM.

**Q.** What about the kcat of the same protein?
**A.** The kcat was 57.9 ± 1.9 s⁻¹.

**Q.** And the kcat/Km?
**A.** Its kcat/Km is 3.38e+06 ± 130000 M⁻¹ s⁻¹.

**Q.** What does the source list for B2?
**A.** Km: 24.6 ± 4.2 µM; kcat: 19.6 ± 0.9 s⁻¹; kcat/Km: 800000 ± 140000 M⁻¹ s⁻¹

**Q.** How did the Km turn out when B3 was run?
**A.** Its Km is 24.7 ± 5.7 µM.

**Q.** And the kcat?
**A.** The kcat was 0.03 ± 0.002 s⁻¹.

**Q.** What about the kcat/Km of the same protein?
**A.** The kcat/Km was 1210 ± 300 M⁻¹ s⁻¹.

**Q.** How did the Km turn out when B4 was run?
**A.** Its Km is 27.7 ± 3.4 µM.

**Q.** What about the kcat of the same protein?
**A.** The kcat was 47.1 ± 2.1 s⁻¹.

**Q.** What about the kcat/Km of the same protein?
**A.** The kcat/Km was 1.7e+06 ± 220000 M⁻¹ s⁻¹.

**Q.** What does the source list for B5?
**A.** Km: 18.7 ± 2.8 µM; kcat: 38.2 ± 1.3 s⁻¹; kcat/Km: 2.04e+06 ± 310000 M⁻¹ s⁻¹

**Q.** Which results are given for B6?
**A.** Km: 22.9 ± 3.4 µM; kcat: 25.4 ± 1.1 s⁻¹; kcat/Km: 1.1e+06 ± 170000 M⁻¹ s⁻¹
